Reference: paper PMC8238508, “Protein-based condensation mechanisms drive the assembly of RNA-rich P granules”

Columns and labels:
MEG-3 (wild type) = target: T1, MEG-3 (wild type) (Caenorhabditis elegans, UniProt Q9TXM1 1-862); experiment: filter binding; mean and SD computed from four replicate fits: 809.8, 808.8, 661.5, 695.9; Hill model; 50 nM RNA; 3.75 mM HEPES (stock pH 7.4), 150 mM NaCl, 0.9 mM beta-mercaptoethanol, 1.5% glycerol, 10 mM Tris HCl; 30 min, room temperature; nitrocellulose/Hybond-N+ dot blot; settings: protein: recombinant; tags: N-terminal 6xHis (pET28a); label: 3' fluorescein
T1 sequence: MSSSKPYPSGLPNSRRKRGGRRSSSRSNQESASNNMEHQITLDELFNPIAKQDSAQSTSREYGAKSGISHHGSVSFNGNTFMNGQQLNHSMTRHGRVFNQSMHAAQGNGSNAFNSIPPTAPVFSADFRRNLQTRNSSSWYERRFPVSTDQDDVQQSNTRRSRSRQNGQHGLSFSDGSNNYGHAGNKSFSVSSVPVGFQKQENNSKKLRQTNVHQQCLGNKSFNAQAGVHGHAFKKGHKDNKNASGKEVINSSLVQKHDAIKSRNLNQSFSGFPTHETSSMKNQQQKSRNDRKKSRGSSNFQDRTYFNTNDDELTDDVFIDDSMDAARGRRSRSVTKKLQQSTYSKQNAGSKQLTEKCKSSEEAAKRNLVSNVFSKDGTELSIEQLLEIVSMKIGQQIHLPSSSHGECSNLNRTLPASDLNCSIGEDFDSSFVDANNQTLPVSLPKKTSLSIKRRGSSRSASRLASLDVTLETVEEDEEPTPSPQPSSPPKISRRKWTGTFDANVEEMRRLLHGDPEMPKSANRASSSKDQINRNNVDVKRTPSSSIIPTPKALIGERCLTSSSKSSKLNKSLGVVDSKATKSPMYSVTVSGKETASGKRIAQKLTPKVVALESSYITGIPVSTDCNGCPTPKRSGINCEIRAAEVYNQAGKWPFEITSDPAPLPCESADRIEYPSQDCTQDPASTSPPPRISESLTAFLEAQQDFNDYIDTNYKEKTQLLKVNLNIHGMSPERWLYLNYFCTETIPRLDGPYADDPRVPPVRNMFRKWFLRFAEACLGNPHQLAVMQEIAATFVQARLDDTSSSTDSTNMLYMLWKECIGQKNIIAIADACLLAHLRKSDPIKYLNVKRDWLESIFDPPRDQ

MEG-3 IDR = target: T2, MEG-3 IDR (Caenorhabditis elegans, UniProt Q9TXM1 1-544); experiment: filter binding; mean and SD computed from four replicate fits: 109.3, 83.64, 103.3, 107.9; Hill model; curve assigned by legend order; 50 nM RNA; 3.75 mM HEPES (stock pH 7.4), 150 mM NaCl, 0.9 mM beta-mercaptoethanol, 1.5% glycerol, 10 mM Tris HCl; 30 min, room temperature; nitrocellulose/Hybond-N+ dot blot; settings: protein: recombinant; tags: N-terminal 6xHis (pET28a); label: 3' fluorescein
T2 sequence: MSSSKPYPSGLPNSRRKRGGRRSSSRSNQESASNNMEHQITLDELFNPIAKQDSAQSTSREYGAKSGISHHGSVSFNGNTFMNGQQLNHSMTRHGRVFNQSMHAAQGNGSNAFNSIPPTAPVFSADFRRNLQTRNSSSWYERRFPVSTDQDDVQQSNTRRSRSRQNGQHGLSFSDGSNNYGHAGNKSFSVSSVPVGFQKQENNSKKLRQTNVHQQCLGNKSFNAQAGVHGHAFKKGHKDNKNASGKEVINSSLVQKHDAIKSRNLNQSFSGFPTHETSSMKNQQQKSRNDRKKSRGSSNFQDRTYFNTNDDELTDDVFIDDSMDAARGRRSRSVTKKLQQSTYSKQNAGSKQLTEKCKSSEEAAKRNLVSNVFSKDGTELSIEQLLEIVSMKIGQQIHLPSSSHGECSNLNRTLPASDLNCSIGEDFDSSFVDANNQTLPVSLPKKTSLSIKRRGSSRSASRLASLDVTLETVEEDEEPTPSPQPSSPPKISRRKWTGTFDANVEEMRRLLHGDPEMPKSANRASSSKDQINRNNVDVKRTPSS

Q: Which results are given for UUUUUUUUUUUUUUUUUUUUUUUUUUUUUU (ssRNA) [poly-U(30) (30U)]?
A: Kd (MEG-3 (wild type)): 744 ± 77 nM; Kd (MEG-3 IDR): 101 ± 12 nM
